From FireProtDB (doi:10.1021/bi500238q)

Conditions: Geobacillus kaustophilus (strain HTA426), pH 7, Thermal, CD, Potassium Phosphate Buffer 10 mM, whole UniProt chain shown

B1: Dihydrofolate reductase wild type, Q5KZ26 (protein)
chain: MISHIVAMDENRVIGKDNRLPWHLPADLAYFKRVTMGHAIVMGRKTFEAIGRPLPGRDNVVVTRNRSFRPEGCLVLHSLEEVKQWIASRADEVFIIGGAELFRATMPIVDRLYVTKIFASFPGDTFYPPISDDEWEIVSYTPGGKDEKNPYEHAFIIYERKKAK
Tm (KCl 0.1 M): 66.9 °C
Tm (KCl 0.2 M): 67.9 °C
Tm (KCl 0.5 M): 68.3 °C
Tm (KCl 1 M): 70.1 °C
Tm (KCl 1.5 M): 71.7 °C
Tm (KCl 2 M): 73.8 °C
Tm (KF 0.1 M): 66.8 °C
Tm (KF 0.2 M): 67.5 °C
Tm (KF 0.5 M): 68.6 °C
Tm (KF 1 M): 71 °C
Tm (KF 1.5 M): 73.8 °C
Tm (KF 2 M): 74.6 °C
Tm (NaCl 0.1 M): 66.8 °C
Tm (NaCl 0.2 M): 67.2 °C
Tm (NaCl 0.5 M): 67.6 °C
Tm (NaCl 1 M): 69.5 °C
Tm (NaCl 1.5 M): 71.5 °C
Tm (NaCl 2 M): 73.4 °C
